The source of these data is publication PMC10017804.

In this assay the target is photosystem II (PSII) complex of Porphyridium purpureum (P. purpureum (endogenous in P. purpureum cells)). Nature of the assay: cryo-EM structure; in situ, single cryo-EM images (no tilt series) of FIB-milled P. purpureum cellular lamellae; particles localized by GisSPA, then 3D classification and local refinement.

The substance “photosystem II (PSII) complex of Porphyridium purpureum” registered a stoichiometry N of 4.

What is called stoichiometry N is the number of molecules, sites or subunits per partner or assembly.
